Results published in PMC3553564.

B1: dsDNA (dsDNA)
DNA 1: CCTTACAGCAAA
DNA 2: TTTGCTGTAAGG
B2: dsRNA (dsRNA)
RNA 1: AUCGGGCA
RNA 2: UGCCCGAU

Tests used:
Assay in all cases: fluorescence polarization
[1] = molecular target: RBM25 PWI domain + flanking basic region WT (Homo sapiens, UniProt P49756 734-843)
PWI K825A+R828A = PWI K825A+R828A (Homo sapiens, UniProt P49756 734-843, K825A;R828A)
PWI H737A+K739A = PWI H737A+K739A (Homo sapiens, UniProt P49756 734-843, H737A;K739A)
PWI K777A+K778A = PWI K777A+K778A (Homo sapiens, UniProt P49756 734-843, K777A;K778A)
PWI K744A = PWI K744A (Homo sapiens, UniProt P49756 734-843, K744A)
PWI K837A+K838A = PWI K837A+K838A (Homo sapiens, UniProt P49756 734-843, K837A;K838A)
PWI R769A+R770A = PWI R769A+R770A (Homo sapiens, UniProt P49756 734-843, R769A;R770A)
PWI K734A+R735A+K736A = PWI K734A+R735A+K736A (Homo sapiens, UniProt P49756 734-843, K734A;R735A;K736A)
PWI ΔHb = PWI ΔHb (Homo sapiens, UniProt P49756 746-843, del734-745)
Sequence of PWI ΔHb (P49756 746-843, stated change not applied): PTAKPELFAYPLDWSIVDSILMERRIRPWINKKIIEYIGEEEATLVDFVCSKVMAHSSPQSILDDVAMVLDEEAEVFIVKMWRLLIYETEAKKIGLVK

Sequence of RBM25 PWI domain + flanking basic region WT (P49756 734-843): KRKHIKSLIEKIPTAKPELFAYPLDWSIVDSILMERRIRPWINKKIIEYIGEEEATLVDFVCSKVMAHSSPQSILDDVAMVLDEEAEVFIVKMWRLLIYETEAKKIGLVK
Sequence of PWI K825A+R828A (P49756 734-843 K825A/R828A): as the sequence (P49756 734-843) above, with K92A, R95A counted along it
Sequence of PWI R769A+R770A (P49756 734-843 R769A/R770A): as the sequence (P49756 734-843) above, with R36A, R37A counted along it
Sequence of PWI K734A+R735A+K736A (P49756 734-843 K734A/R735A/K736A): as the sequence (P49756 734-843) above, with K1A, R2A, K3A counted along it
Sequence of PWI H737A+K739A (P49756 734-843 H737A/K739A): as the sequence (P49756 734-843) above, with H4A, K6A counted along it
Sequence of PWI K837A+K838A (P49756 734-843 K837A/K838A): as the sequence (P49756 734-843) above, with K104A, K105A counted along it
Sequence of PWI K744A (P49756 734-843 K744A): as the sequence (P49756 734-843) above, with K11A counted along it
Sequence of PWI K777A+K778A (P49756 734-843 K777A/K778A): as the sequence (P49756 734-843) above, with K44A, K45A counted along it

| Binder | Kd [1] | Kd (PWI K825A+R828A) | Kd (PWI H737A+K739A) | Kd (PWI K777A+K778A) | Kd (PWI K744A) | Kd (PWI K837A+K838A) | Kd (PWI R769A+R770A) | Kd (PWI K734A+R735A+K736A) | binding result (PWI ΔHb) |
| --- | --- | --- | --- | --- | --- | --- | --- | --- | --- |
| B1 | ~6.7 µM | ~106 µM | ~57 µM | ~160 µM | ~23.6 µM | ~40.4 µM | ~46 µM | ~194 µM | no binding |
| AUCGGGCA (ssRNA) [ssRNA] | 11.3 ± 1 µM | 106 ± 17.3 µM | 61.6 ± 9.3 µM | 156 ± 29.4 µM | 19.9 ± 4.4 µM | 15.7 ± 2.1 µM | 32.1 ± 1.4 µM | 183 ± 44.7 µM | no binding |
| CCTTACAGCAAA (ssDNA) [ssDNA] | ~4.4 µM | – | – | – | – | – | – | – | – |
| B2 | ~8.2 µM | – | – | – | – | – | – | – | – |
